In publication PMC4938799, “LD Motif Recognition by Talin: Structure of the Talin-DLC1 Complex” (Structure(London, England:1993), 2016):
“Also recorded” adds a separate entry of the source.

Key:
Type in all cases: cell-based
[1] = test system: A549 human non-small cell lung cancer line; experiment: G418 (monolayer) colony growth assay; conditions: transfected A549, G418 for 3 weeks; mean over three experiments
Source text: (§1) Figure 6 Talin R8 Mutations Disrupt the Interaction with DLC1 and Affect Its Biological Activity (A) Wild-type GST-talin fragments pull down more DLC1 than the 2E mutants. Extracts of HEK293T cells transfected with GFP-DLC1 and GST-talin constructs were subjected to pull-down assays with glutathione beads followed by immunoblotting with anti-GST and anti-DLC1 on the same membrane (top). The transfected GFP-DLC1 in each sample is shown by the anti-DLC1 blot (bottom) as a loading control. (B) Wild-type GST-talin fragments compete efficiently with endogenous talin to form a complex with DLC1. The supernatants collected after pull-down assay from (A) were reused for co-immunoprecipitation with an anti-talin antibody and blotted with anti-DLC1 (top). A small aliquot from each lane was blotted for endogenous talin as a loading control (bottom). (C) Co-expression of GST or GST-talin fragments (wild-type or 2E mutant) with GFP DLC1 in A549 cells. […] Transfected A549 cells were cultured in G418 for 3 weeks, and colonies counted and quantitated (top). […] Transfected A549 cells were grown for 3 weeks in soft agar, and colonies counted and quantitated (top). […] Lysates from migrated cells were quantitated (top), and representative microscopic images of the migrated cells are shown (bottom). […]

[2] = test system: A549 human non-small cell lung cancer line; experiment: Growth in soft agar; conditions: transfected A549, 3 weeks; mean over three experiments
Source text: as §1

[3] = test system: A549 human non-small cell lung cancer line; experiment: Transwell cell migration assay; conditions: transfected A549, transwell, 24 h; mean over three experiments
Source text: as §1

GFP-DLC1 = experiment: GST pull-down of GFP-DLC1 in HEK 293T cells; conditions: HEK 293T cells co-transfected with GFP-DLC1 and GST-tagged talin constructs, immunoblot
Experimental: We reported previously that wild-type talin R8 is sufficient to form a complex with full-length DLC1 in cells ([Li et al., 2011]). To evaluate the effects of the single K1530E and K1544E and double K1530E/K1544E (2E) R8 mutants on the complex formation in vivo, we engineered GST-tagged R8 constructs into isogenic mammalian expression plasmids and co-transfected them with GFP-DLC1 into HEK 293T cells. Complex formation was determined by a GST pull-down assay.
The plasmids expressing GFP-DLC1 and GST fusion proteins with talin rod fragments encoding talin amino acids 1,288–1,646 and 1,453–1,580 (R8) were described previously ([Li et al., 2011]). The plasmid encoding 1,352–1,580 (R7R8) was engineered by PCR and subcloned into a eukaryotic expression vector, PEBG. HEK293T cells were transfected by Lipofectamine 2000, and DLC1-null lung adenocarcinoma cell lines A549 and H358 cells were transfected by Lipofectamine 3000 according to the manufacturer’s instructions (Invitrogen). Cells were co-transfected with plasmids expressing GFP-DLC1 or Paxillin-DDK and GST, GST-talin fragments, or vector at a ratio of 1:2.5. Cells were incubated at 37°C in a humidified 5% CO2 atmosphere. In vivo pull-down assay, co-immunoprecipitation, immunoblotting, G418 colony growth, soft agar growth, and cell migration assays were described previously ([Qian et al., 2009]). All experiments were conducted in triplicate.
Figure S2, related to Figures 4 and 5. […]
R8 talin fragment were co-transfected with GFP-DLC1 into 293T cells. Cell extracts were subjected
(1 picture or pasted object on this page, not shown here) […]
to pull-down assay with glutathione beads followed by immunoblotting with anti-GST and anti-DLC1 on the same membrane (top). The transfected GFP-DLC1 in each sample is shown by the anti-DLC1 blot (bottom) as a loading control. […]
HEK 293T cells were transfected by lipofectamine 2000 and DLC1-null lung adenocarcinoma cell lines A549 and H358 cells were transfected by lipofectamine 3000 according to manufacturer instructions (Invitrogen). Cells were co-transfected with plasmids expressing GFP-DLC1 or Paxillin-DDK and GST, GST-talin fragments, or vector at a ratio of 1:2.5. Cells were incubated at 37 °C in a humidified 5% CO2 atmosphere.
In vivo pull-down assay, co-immunoprecipitation, and immunoblotting - As described previously (Qian et al., 2009), two days after transfection, cell extracts were collected using golden lysis buffer (GLB: 20 mM Tris pH 7.9, 137 mM NaCl, 10% glycerol, 1% Triton, 5 mM EDTA, 1 mM EGTA, 1 mM Na3VO4, 10 mM NaF, 1 mM sodium pyrophosphate, 0.5 mM β-glycerophosphate, and protease inhibitor cocktail tablet (Roche)). The cleared supernatants were collected, and the amount of protein estimated by BCA kit (Pierce). […]

B1: GFP-DLC1: GFP fusion of full-length DLC1 expressed from plasmid (protein)
chain: MCRKKPDTMILTQIEAKEACDWLRATGFPQYAQLYEDFLFPIDISLVKREHDFLDRDAIEALCRRLNTLNKCAVMKLEISPHRKRSDDSDEDEPCAISGKWTFQRDSKRWSRLEEFDVFSPKQDLVPGSPDDSHPKDGPSPGGTLMDLSERQEVSSVRSLSSTGSLPSHAPPSEDAATPRTNSVISVCSSSNLAGNDDSFGSLPSPKELSSFSFSMKGHEKTAKSKTRSLLKRMESLKLKSSHHSKHKAPSKLGLIISGPILQEGMDEEKLKQLNCVEISALNGNRINVPMVRKRSVSNSTQTSSSSSQSETSSAVSTPSPVTRTRSLSACNKRVGMYLEGFDPFNQSTFNNVVEQNFKNRESYPEDTVFYIPEDHKPGTFPKALTNGSFSPSGNNGSVNWRTGSFHGPGHISLRRENSSDSPKELKRRNSSSSMSSRLSIYDNVPGSILYSSSGDLADLENEDIFPELDDILYHVKGMQRIVNQWSEKFSDEGDSDSALDSVSPCPSSPKQIHLDVDNDRTTPSDLDSTGNSLNEPEEPSEIPERRDSGVGASLTRSNRHRLRWHSFQSSHRPSLNSVSLQINCQSVAQMNLLQKYSLLKLTALLEKYTPSNKHGFSWAVPKFMKRIKVPDYKDRSVFGVPLTVNVQRTGQPLPQSIQQAMRYLRNHCLDQVGLFRKSGVKSRIQALRQMNEGAIDCVNYEGQSAYDVADMLKQYFRDLPEPLMTNKLSETFLQIYQYVPKDQRLQAIKAAIMLLPDENREVLQTLLYFLSDVTAAVKENQMTPTNLAVCLAPSLFHLNTLKRENSSPRVMQRKQSLGKPDQKDLNENLAATQGLAHMIAECKKLFQVPEEMSRCRNSYTEQELKPLTLEALGHLGNDDSADYQHFLQDCVDGLFKEVKEKFKGWVSYSTSEQAELSYKKVSEGPPLRLWRSVIEVPAVPEEILKRLLKEQHLWDVDLLDSKVIEILDSQTEIYQYVQNSMAPHPARDYVVLRTWRTNLPKGACALLLTSVDHDRAPVVGVRVNVLLSRYLIEPCGPGKSKLTYMCRVDLRGHMPEWYTKSFGHLCAAEVVKIRDSFSNQNTETKDTKSR
modifications: left off: GFP, end not stated, kept
notes: GFP fusion of full-length DLC1 expressed from plasmid
Q: What does the source list for B1?
A: colony growth [1]: suppressed colony formation; also recorded: inhibitory in all three assays; growth in soft agar [2]: inhibitory in all three assays; cell migration [3]: suppressed cell migration; also recorded: inhibitory in all three assays

B2: talin R8 K1530E: GST-tagged talin R8 single mutant K1530E (protein)
chain: NSQAGQQGLVEPTQFARANQAIQMACQSLGEPGCTQAQVLSAATIVAKHTSALCNSCRLASARTANPTAKRQFVQSAEEVANSTANLVKTIKALDGDFTEENRAQCRAATAPLLEAVDNLSAFASNPE
modifications: left off: GST, end not stated, kept
Q: For B2, which “DLC1 binding in GST pull-down” value (GFP-DLC1) is on record?
A: greater reduction in DLC1 binding than K1544E

Q: What about the “DLC1 binding in GST pull-down” value (GFP-DLC1; listed as GST-talin R1530E) of the same molecule?
A: binds DLC1 less well than the K1544E mutant

B3: 2E double mutant: GST-tagged talin R8 K1530E/K1544E double mutant (protein)
chain: NSQAGQQGLVEPTQFARANQAIQMACQSLGEPGCTQAQVLSAATIVAKHTSALCNSCRLASARTANPTAKRQFVQSAEEVANSTANLVKTIEALDGDFTEENRAQCRAATAPLLEAVDNLSAFASNPE
modifications: left off: GST, end not stated, kept
Q: Which results are given for B3?
A: DLC1 binding in GST pull-down (GFP-DLC1): reduced binding to a greater extent than either single mutant; DLC1 binding in GST pull-down (GFP-DLC1; listed as talin R8 K1530E/K1544E double mutant): markedly reduced binding
